This note sets out measurements from the RNAGym collection of RNA variant scans (doi:10.7554/elife.80360).

The chains are these.
B1: HDV Ribozyme (parent)
chain: GGCCGGCAUGGUCCCAGCCUCCUCGCUGGCGCCGGCUGGGCAACAUUCCGAGGGGACCGUCCCCUCGGUAAUGGCGAAUGGGACCCA

Variants of B1 are the subject of the series. Put plainly: self-cleavage, relative activity (ratio to wild type); higher = more cleavage; co-transcriptional.
For C15U U60C, the self-cleavage was 0.969.
C15U U60A: the self-cleavage turned out to be 1.15.
Turning to C15U U60G, the self-cleavage amounted to 0.554.
Next, A16C U20C: 0.277; A16C U20A: 0; C15U G28C: 0.0405.
For C15U G28U, the self-cleavage stood at 0.227.
On to C15U U46A, for which the self-cleavage amounted to 0.692.
With A16G A70U the figure was 0.499; with A16C A42G, 0.229.
Take C15G U20C: the self-cleavage was determined as 0.166.
With C15G U20G, the self-cleavage is 0.
Consider A16G C49G, for which the self-cleavage worked out at 0.875.
As for A16G C49U, the self-cleavage was found to be 1.23.
On to C15U U72C, for which the self-cleavage amounted to 0.598.
With C15G G81C the figure was 0.375; with C15G G81A, 0.297; with C15U U47A, 1.23.
As for A16C G38U, the self-cleavage was determined as 0.287.
Turning to A16C G38A, the self-cleavage was determined as 0.0504.
C15U U65C: the self-cleavage stood at 0.674.
Take C15U U65G: the self-cleavage worked out at 0.914.
With A16C A77C, the self-cleavage worked out at 0.266.
Regarding A16C A77U, the self-cleavage stood at 0.199.
On to C15U C85G, for which the self-cleavage was 0.831.
With A16C A51G, the self-cleavage came to 0.475.
Take A16C A51C: the self-cleavage was determined as 0.612.
On to A16C A43U, for which the self-cleavage is 0.0831.
A16C G17C: the self-cleavage turned out to be 0.266.
As to A16C G17U, the self-cleavage was determined as 0.332.
Consider A16G C61G, for which the self-cleavage turned out to be 0.962.
For A16G C41G, the self-cleavage turned out to be 0.623.
For the variant C15U C63G, the self-cleavage was 0.776.
As to C15U C63A, the self-cleavage came to 1.03.
Regarding C15G U27A, the self-cleavage amounted to 0.431.
In the case of A16C G35U, the self-cleavage was found to be 0.107.
With A16C G35A, the self-cleavage came to 0.175.
On to A16C G35C, for which the self-cleavage stood at 0.175.
With A16G G28C the figure was 0.115; with A16C C64U, 1.02; with A16G C62A, 0.877.
Turning to A16G C62G, the self-cleavage turned out to be 0.369.
Regarding C15G U46G, the self-cleavage stood at 0.755.
With C15G U46C the figure was 0.256; with A16C G59U, 0.808.
Take C15U C49A: the self-cleavage was 0.623.
Consider C15U A45U, for which the self-cleavage amounted to 0.831.
Turning to C15U A45G, the self-cleavage came out at 0.8.
For C15U G52A, the self-cleavage stood at 0.863.
In the case of C15G G67U, the self-cleavage turned out to be 0.475.
In the case of C15G G67C, the self-cleavage stood at 0.415.
On to C15G G67A, for which the self-cleavage was 0.731.
Consider C15U C33A, for which the self-cleavage is 0.178.
As for C15U C33G, the self-cleavage was 0.166.
On to C15G C85A, for which the self-cleavage was found to be 0.748.
As for C15G G34A, the self-cleavage stood at 0.237.
As for A16C C19A, the self-cleavage came to 0.277.
Consider A16C C19G, for which the self-cleavage is 0.0594.
As to C15U C24A, the self-cleavage came out at 0.482.
C15U C24G: the self-cleavage was 0.
For the variant A16C G81A, the self-cleavage is 0.489.
In the case of C15U C84A, the self-cleavage amounted to 0.81.
For the variant C15U A56C, the self-cleavage stood at 1.02.
In the case of C15U A56U, the self-cleavage came out at 0.91.
Next, C15U A71G: 1.14; C15U A71C: 0.467.
Take C15G C86A: the self-cleavage amounted to 0.712.
Regarding C15G G54C, the self-cleavage turned out to be 0.415.
Regarding A16G A43U, the self-cleavage is 0.623.
In the case of C15U C64U, the self-cleavage came to 0.902.
Take C15U C75G: the self-cleavage was 0.0665.
Next, C15G G53U: 0.724; C15G G53C: 0.598.
With C15U C26G the figure was 0.867.
As for C15G G74C, the self-cleavage was found to be 0.119.
With A16C U46C the figure was 0.511; with A16C U46G, 0.332; with A16C U46A, 0.262.
A16G C48A: the self-cleavage was 0.802.
Take A16G C48G: the self-cleavage was 0.914.
With A16G C48U the figure was 1.42; with A16C U69C, 0.739; with A16C U69A, 0.767.
Regarding A16C U69G, the self-cleavage was 0.923.
For the variant C15U C18G, the self-cleavage was 0.0594.
For C15U A16U, the self-cleavage is 1.26.
Turning to C15U C57U, the self-cleavage turned out to be 0.864.
Regarding C15U C57A, the self-cleavage amounted to 1.03.
As to C15U C62U, the self-cleavage was 0.764.
Consider C15U C62A, for which the self-cleavage came out at 1.08.
On to C15G U47C, for which the self-cleavage worked out at 0.128.
For the variant C15G U47G, the self-cleavage came to 0.665.
On to A16C C32A, for which the self-cleavage amounted to 0.0554.
In the case of C15G G68A, the self-cleavage turned out to be 0.525.
Regarding C15G G68U, the self-cleavage stood at 0.369.
For the variant C15U U27G, the self-cleavage was 0.511.
Turning to C15U U27A, the self-cleavage stood at 0.63.
Turning to C15U G29C, the self-cleavage was found to be 0.0449.
With C15U C66U the figure was 1.21; with C15U C66G, 0.831; with A16C G80A, 0.406.
As for C15U A43C, the self-cleavage was determined as 0.0594.
Next, A16G C66G: 0.743; A16G C66A: 0.88; C15G U23G: 0.415.
Regarding A16C U47G, the self-cleavage was 0.185.
Next, A16C U47C: 0.95; A16C C57G: 0.646.
Turning to C15U C48U, the self-cleavage turned out to be 0.852.
Next, C15U C48G: 1.13; C15U C48A: 1.17.
On to A16G A83U, for which the self-cleavage was found to be 0.415.
Turning to C15G G31C, the self-cleavage was 0.178.
With C15G G31U, the self-cleavage was found to be 0.135.
On to C15U G76C, for which the self-cleavage was 1.03.
As for C15U G76A, the self-cleavage worked out at 0.997.
Take A16C C63U: the self-cleavage was 0.895.
Regarding A16G C64G, the self-cleavage came out at 0.807.
In the case of C15U A51G, the self-cleavage was determined as 1.07.
Regarding C15U A51C, the self-cleavage stood at 1.17.
On to C15G G29U, for which the self-cleavage was determined as 0.
As for C15G G76A, the self-cleavage worked out at 0.665.
With A16C C26G, the self-cleavage is 0.731.
A16C G34C: the self-cleavage was determined as 0.104.
Regarding A16C G68A, the self-cleavage is 0.649.
On to A16C C58U, for which the self-cleavage turned out to be 1.05.
As for C15U C30A, the self-cleavage stood at 0.567.
Turning to C15U C30U, the self-cleavage was 0.554.
As to C15U U37C, the self-cleavage is 0.923.
In the case of C15U U37A, the self-cleavage was found to be 0.196.
Regarding C15U G53U, the self-cleavage is 0.767.
Next, A16G C85U: 0.969.
As to A16G C85G, the self-cleavage is 0.965.
As to A16G C75U, the self-cleavage was 0.178.
A16G C75G: the self-cleavage was 0.222.
With A16C U79G, the self-cleavage came to 0.692.
As for A16C G54U, the self-cleavage was 0.789.
Take A16C G54C: the self-cleavage amounted to 0.87.
For A16C G54A, the self-cleavage is 0.866.
For A16G C33A, the self-cleavage was 0.268.
A16G C33G: the self-cleavage came out at 0.19.
Turning to C15G U69G, the self-cleavage is 0.256.
With C15G U69A the figure was 0.604; with C15U A77G, 1.14.
In the case of C15G G38C, the self-cleavage came out at 0.0639.
With C15G G38A, the self-cleavage was found to be 0.
Next, C15U U69A: 1.15; A16G G29C: 0.
Regarding A16C G76U, the self-cleavage was found to be 0.88.
Next, A16C G76C: 0.731; A16C G76A: 1.08; C15G C84G: 0.222.
Next, C15G C84U: 0.302; C15U U79G: 0.703; C15G G17C: 0.0875.
C15G G17A: the self-cleavage was 0.133.
In the case of A16C G28A, the self-cleavage was found to be 0.0449.
Turning to A16C G28C, the self-cleavage is 0.119.
Regarding A16G A42U, the self-cleavage came out at 0.396.
On to A16G A42G, for which the self-cleavage stood at 0.504.
Consider C15U C41A, for which the self-cleavage was 0.962.
For the variant C15U C41U, the self-cleavage turned out to be 1.05.
With C15U G74A the figure was 0.383; with C15U G74U, 0.485; with C15U G74C, 0.185.
With C15G G39A, the self-cleavage came to 0.341.
Consider C15G G39C, for which the self-cleavage is 0.0723.
